Data set [1] deals with the molecule itself. Nature of the data set: negative-stain electron microscopy; purified Vps1 imaged directly, adsorbed on carbon-coated grids, negative staining with uranyl formate; oligomeric rings.
Data set [2] has as its target rabbit muscle actin (F-actin) (rabbit, UniProt P68135 1-377). Nature of the data set: co-sedimentation; high-speed F-actin pelleting: purified Vps1 (supernatant of a 90,000 x g pre-spin) mixed with pre-polymerized yeast or rabbit muscle F-actin (10% KME pH 8), 15 min, spun 90,000 x g; supernatant and pellet by SDS-PAGE, densitometry; KD from a single site binding curve over a range of Vps1 concentrations; 1.5 uM Vps1 with 3 uM F-actin in Figure 1A. As to conditions: both partners purified.

Numbering of substitutions follows the chain as printed. In names and notes the source's numbering stands.

B1: Vps1 (yeast dynamin), wild type, recombinant His tag fusion (natural protein, yeast (budding yeast), UniProt P21576 1-704, looked up)
chain: MDEHLISTINKLQDALAPLGGGSQSPIDLPQITVVGSQSSGKSSVLENIVGRDFLPRGTGIVTRRPLVLQLINRRPKKSEHAKVNQTANELIDLNINDDDKKKDESGKHQNEGQSEDNKEEWGEFLHLPGKKFYNFDEIRKEIVKETDKVTGANSGISSVPINLRIYSPHVLTLTLVDLPGLTKVPVGDQPPDIERQIKDMLLKYISKPNAIILSVNAANTDLANSDGLKLAREVDPEGTRTIGVLTKVDLMDQGTDVIDILAGRVIPLRYGYIPVINRGQKDIEHKKTIREALENERKFFENHPSYSSKAHYCGTPYLAKKLNSILLHHIRQTLPEIKAKIEATLKKYQNELINLGPETMDSASSVVLSMITDFSNEYAGILDGEAKELSSQELSGGARISYVFHETFKNGVDSLDPFDQIKDSDIRTIMYNSSGSAPSLFVGTEAFEVLVKQQIRRFEEPSLRLVTLVFDELVRMLKQIISQPKYSRYPALREAISNQFIQFLKDATIPTNEFVVDIIKAEQTYINTAHPDLLKGSQAMVMVEEKLHPRQVAVDPKTGKPLPTQPSSSKAPVMEEKSGFFGGFFSTKNKKKLAALESPPPVLKATGQMTERETMETEVIKLLISSYFSIVKRTIADIIPKALMLKLIVKSKTDIQKVLLEKLYGKQDIEELTKENDITIQRRKECKKMVEILRNASQIVSSV
notes: Vps1, dynamin-like protein of budding yeast; wild-type VPS1 expressed as a His tag fusion; Template plasmids pKA677 and pKA850 are named; Forms oligomeric rings by EM; also called wild-type Vps1; yeast dynamin Vps1; source: E. coli (C43), purified
On to B1, for which the binding result in data set [1] is on record as “binds”. Further, the Kd (usually the equilibrium constant for the complex coming apart) in data set [2] amounted to 920 ± 310 nM.

B2: Vps1 RR457,458EE, recombinant His tag fusion (natural protein, yeast (budding yeast), UniProt P21576 1-704, looked up)
chain: B1 chain with R457E, R458E
notes: Vps1 of budding yeast with the charge-switch mutations R457E and R458E in a helix of the stalk domain; Made by site-directed mutagenesis of template plasmids pKA677 and pKA850; also called RR-EE; Vps1 RR-EE; source: E. coli (C43), purified
Regarding B2, the binding result in data set [1] was “binds”.

The values above are taken from publication PMC4386032, “A Dynamin-Actin Interaction Is Required for Vesicle Scission during Endocytosis in Yeast” (Current Biology, 2015).
